Measured values reported in patent US20050054041.

B1: KinI-3 construct E213/L546 (protein)
chain: MEKQNPWTEMEKIRVCVRKRPLGMREVRRGEINIITVEDKETLLVHEKKEAVDLTQYILQHVFYFDEVFGEACTNQDVYMKTTHPLIQHIFNGGNATCFAYGQTGAGKTYTMIGTHENPGLYALAAKDIFRQLEVSQPRKHLFVWISFYEIYCGQLYDLLNRRKRLFAREDSKHMVQIVGLQELQVDSVELLLEVILKGSKERSTGATGVNADSSRSHAVIQIQIKDSAKRTFGRISFIDLAGSERAADARDSDRQTKMEGAEINQSLLALKECIRALDQEHTHTPFRQSKLTQVLKDSFIGNAKTCMIANISPSHVATEHTLNTLRYADRVKELLEHHHHHH
B2: KinI-3 construct E233F541 (protein)
chain: LGMREVRRGEINIITVEDKETLLVHEKKEAVDLTQYILQHVFYFDEVFGEACTNQDVYMKTTHPLIQHIFNGGNATCFAYGQTGAGKTYTMIGTHENPGLYALAAKDIFRQLEVSQPRKHLFVWISFYEIYCGQLYDLLNRRKRLFAREDSKHMVQIVGLQELQVDSVELLLEVILKGSKERSTGATGVNADSSRSHAVIQIQIKDSAKRTFGRISFIDLAGSERAADARDSDRQTKMEGAEINQSLLALKECIRALDQEHTHTPFRQSKLTQVLKDSFIGNAKTCMIANISPSHVATEHTLNTLRYAD
B3: KinI-3 construct V195L546 (protein)
chain: VSGYNYGIPHSCIRQNTSEKQNPWTEMEKIRVCVRKRPLGMREVRRGEINIITVEDKETLLVHEKKEAVDLTQYILQHVFYFDEVFGEACTNQDVYMKTTHPLIQHIFNGGNATCFAYGQTGAGKTYTMIGTHENPGLYALAAKDIFRQLEVSQPRKHLFVWISFYEIYCGQLYDLLNRRKRLFAREDSKHMVQIVGLQELQVDSVELLLEVILKGSKERSTGATGVNADSSRSHAVIQIQIKDSAKRTFGRISFIDLAGSERAADARDSDRQTKMEGAEINQSLLALKECIRALDQEHTHTPFRQSKLTQVLKDSFIGNAKTCMIANISPSHVATEHTLNTLRYADRVKEL
B4: KinI-3 construct E166L546 (protein)
chain: EISTSLFSPNYLSAILGDCDIPIIQRISHVSGYNYGIPHSCIRQNTSEKQNPWTEMEKIRVCVRKRPLGMREVRRGEINIITVEDKETLLVHEKKEAVDLTQYILQHVFYFDEVFGEACTNQDVYMKTTHPLIQHIFNGGNATCFAYGQTGAGKTYTMIGTHENPGLYALAAKDIFRQLEVSQPRKHLFVWISFYEIYCGQLYDLLNRRKRLFAREDSKHMVQIVGLQELQVDSVELLLEVILKGSKERSTGATGVNADSSRSHAVIQIQIKDSAKRTFGRISFIDLAGSERAADARDSDRQTKMEGAEINQSLLALKECIRALDQEHTHTPFRQSKLTQVLKDSFIGNAKTCMIANISPSHVATEHTLNTLRYADRVKEL
B5: KinI-3 construct V195S566 (protein)
chain: MVSGYNYGIPHSCIRQNTSEKQNPWTEMEKIRVCVRKRPLGMREVRRGEINIITVEDKETLLVHEKKEAVDLTQYILQHVFYFDEVFGEACTNQDVYMKTTHPLIQHIFNGGNATCFAYGQTGAGKTYTMIGTHENPGLYALAAKDIFRQLEVSQPRKHLFVWISFYEIYCGQLYDLLNRRKRLFAREDSKHMVQIVGLQELQVDSVELLLEVILKGSKERSTGATGVNADSSRSHAVIQIQIKDSAKRTFGRISFIDLAGSERAADARDSDRQTKMEGAEINQSLLALKECIRALDQEHTHTPFRQSKLTQVLKDSFIGNAKTCMIANISPSHVATEHTLNTLRYADRVKELKKGIKCCTSVTSRNRTSGNSLEHHHHHH
B6: KinI-3 construct D183L546 (protein)
chain: MDCDIPIIQRISHVSGYNYGIPHSCIRQNTSEKQNPWTEMEKIRVCVRKRPLGMREVRRGEINIITVEDKETLLVHEKKEAVDLTQYILQHVFYFDEVFGEACTNQDVYMKTTHPLIQHIFNGGNATCFAYGQTGAGKTYTMIGTHENPGLYALAAKDIFRQLEVSQPRKHLFVWISFYEIYCGQLYDLLNRRKRLFAREDSKHMVQIVGLQELQVDSVELLLEVILKGSKERSTGATGVNADSSRSHAVIQIQIKDSAKRTFGRISFIDLAGSERAADARDSDRQTKMEGAEINQSLLALKECIRALDQEHTHTPFRQSKLTQVLKDSFIGNAKTCMIANISPSHVATEHTLNTLRYADRVKELLEHHHHHH
B7: KinI-3 construct E213/S566 (protein)
chain: MEKQNPWTEMEKIRVCVRKRPLGMREVRRGEINIITVEDKETLLVHEKKEAVDLTQYILQHVFYFDEVFGEACTNQDVYMKTTHPLIQHIFNGGNATCFAYGQTGAGKTYTMIGTHENPGLYALAAKDIFRQLEVSQPRKHLFVWISFYEIYCGQLYDLLNRRKRLFAREDSKHMVQIVGLQELQVDSVELLLEVILKGSKERSTGATGVNADSSRSHAVIQIQIKDSAKRTFGRISFIDLAGSERAADARDSDRQTKMEGAEINQSLLALKECIRALDQEHTHTPFRQSKLTQVLKDSFIGNAKTCMIANISPSHVATEHTLNTLRYADRVKELKKGIKCCTSVTSRNRTSGNSLEHHHHHH
B8: KinI-3 construct D143L546 (protein)
chain: DDSQYHTKTGILNATAGDSYVQTEISTSLFSPNYLSAILGDCDIPIIQRISHVSGYNYGIPHSCIRQNTSEKQNPWTEMEKIRVCVRKRPLGMREVRRGEINIITVEDKETLLVHEKKEAVDLTQYILQHVFYFDEVFGEACTNQDVYMKTTHPLIQHIFNGGNATCFAYGQTGAGKTYTMIGTHENPGLYALAAKDIFRQLEVSQPRKHLFVWISFYEIYCGQLYDLLNRRKRLFAREDSKHMVQIVGLQELQVDSVELLLEVILKGSKERSTGATGVNADSSRSHAVIQIQIKDSAKRTFGRISFIDLAGSERAADARDSDRQTKMEGAEINQSLLALKECIRALDQEHTHTPFRQSKLTQVLKDSFIGNAKTCMIANISPSHVATEHTLNTLRYADRVKEL

What was measured:
microtubules [1] = tested on: microtubules
microtubules [2] = target: microtubules; remark: listed apart in the source

Molecule | microtubule depolymerization (tubulin in supernatant after centrifugation, SDS PAGE), with ATP (microtubules [1]) | microtubule depolymerization (tubulin in supernatant after centrifugation, SDS PAGE), without hydrolysable ATP (microtubules [1]) | MT depolymerization (microtubules [2])
KinI-3 protein, bacterially expressed and purified (construct not stated) | Track 3 shows an increase in tubulin in the supernatant that indicates depolymerization in the presence of ATP | No depolymerization was observed in the absence of ATP (track 4), in the presence of AMP-PNP (track 5) or in the presence of ADP (track 6) | 
B1 |  |  | yes
B2 |  |  | no
B3 |  |  | no
B4 |  |  | no
B5 |  |  | yes
B6 |  |  | yes
B7 |  |  | weak
B8 |  |  | no
